Experimental data reported in the DeepSol protein solubility set.

test: soluble on expression in E. coli; label from the status in PepcDB or PDB records

Sequence	soluble on expression in E. coli
MGSDKIHHHHHHMATVLIVGRPNVGKSTLFNKLVKKKKAIVEDEEGVTRDPVQDTVEWYGKTFKLVDTCGVFDNPQDIISQKMKEVTLNMIREADLVLFVVDGKRGITKEDESLADFLRKSTVDTILVANKAENLREFEREVKPELYSLGFGEPIPVSAEHNINLDTLLETIIKKLEEKGLDLESKPEITDAIKVAIVGRPNVGKSTLFNAILNKERALVSPIPGTTRDPVDDEVFIDGRKYVFVDTAGLRRKSRVEPRTVEKYSNYRVVDSIEKADVVVIVLDATQGITRQDQRIAGLVERRGRASVVVFNKWDLVEHREKRYDEFTKLFREKLYFIDYSPLIFTSADKGWNIDRVIDAINLAYASYTTKVPSSAINSALQKVLAFTNLPRGLKIFFGLQVDIKPPTFLFFVNSIEKVKNPQKIFLRKLIRDYVFPFEGSPIFLKFKRSR	not soluble
MSLVGYSAVSQPSPASFLLGPTLPPAPSIAFRLWRPYSMTARITSVEALPYRLPLTSKLAWGAHSALSAAEHVLVRVTLSDGSVGVAEATPRPTIYGETPGSVTAILQHLEPALLGLDIADEAALNRVRGSVAGNHTARGALDMALWEARAASRGQSLFDTLLGPHERVRVSFILGIAPPAEMLAEAERVVAAGVRCLKVKVGRHAAQDLQVIAELRRRYGDDVQLYADSNETLTLEQAPDVLAAMREAGLMYVEEPLPARDLRARAALHAAGVLPIVADDSCFTPADLERELDFDTFDVLNVKTARNGFTDGLQMLRRAAEHGKRGMVGSQASTGLGTLHAALLSTQAEVTEPCELSFVLKLGDDLLNRPIEFQDGWLNVPELREHRLDEDKLARYRIEGHHHHHH	not soluble
NIYLDKRITKQATQFLEAARAIDSREHLISGYRSVAYQEKLFNSYVTQEMTSNPNLTRGQAEKLVKTYSQPAGASEHQTGLAMDMSTVDSLNESDPRVVSQLKKIAPQYGFVLRFPDGKTAETGVGYEDWHYRYVGV	not soluble
MKPVKVGICGLGTVGGGTFNVLERNAEEIARRAGRGIEVAQIAARRPNPKCDTGATPITADIFDVACNPEIDVVVELIGGYTLAHELVLKAIENGKHVVTANKALIAVHGNEIFAKAREKGVIVAFEAAVAGGIPVIKAIREGLSANRINWLAGIINGTGNFILSEMREKGRTFPDVLAEAQALGYAEADPTFDVEGIDAAHKLTILASIAFGIPLQFDKAYTEGISKLTSADVNYADALGYRIKHLGVARRTESGFELRVHPTLIPSDRLIANVNGVMNAVMVNGDAVGSTLYYGAGAGMEPTASSVVADLVDVVRAMTSDPENRVPHLAFQPDALSDHPILPIEACESAYYLRIQAKDHPGVLAQVATILSERGINIESIMQKEAEEQDGLVPMILVTHRVIEQRINDAIAALEALEGVSGPVVRIRVEQL	soluble
MHHHHHHGTSLYKKAGSENLYFQGITTRTARQCGQADYGWLQARYTFSFGHYFDPKLLGYASLRVLNQEVLAPGAAFQPRTYPKVDILNVILDGEAEYRDSEGNHVQASAGEALLLSTQPGVSYSEHNLSKDKPLTRMQLWLDACPQRENPLIQKLALNMGKQQLIASPEGAMGSLQLRQQVWLHHIVLDKGESANFQLHGPRAYLQSIHGKFHALTHHEEKAALTCGDGAFIRDEANITLVADSPLRALLIDLPV	soluble
MSNLEIKQGENKFYIGDDENHALAEITYRFVDNNEINIDHTGVSDELGGQGVGKKLVKAVVEHARENHLKIIASCSFAKHMLEKEDSYQDVYLG	soluble
MAHHHHHHMSCITSPPQPSSPPRMDAHTCVCIGITMPPAARQRKGARRSLTLPLLSLPWRKIRDQEGGAVCAGPVQQLPWKVRAEAALQSRPSPPAIRRRYLALSLPMRTSAAAAVAAAAHAGVRALHTATGVAGNSCGASPRATVALPPHSGLTLPSFTRCGASSAAFITRAHSVGCCGCAAAVKQHRLYSSHGCSSNSSGSFADSSRPYVPGQAVQETYPIIQLPARSLWCRQYALDARRVAQGEYAGLISQVREARHYYQYPSMSAPQTGWNVQMFTLFDNSVFINPVNLDEEVWRAEAARQGMSWVAFEEEKMRELRAEGLTGFAWEPCASSGFLLHYIERPLTVRMRALDEHGKPFTVTLDKMRARMALHELDHLQGVLFTRRVVDTDHVVPMEGFVTMSDWSDDYPSLEARSTFLYTIFTPPYHFVSDAVPDGNLLDRKFEDGIYPGCEQDRQQRIELTAMEEIQRNVWRKEKAKRKEGGQQCGRGDVTAVEDDDGSGAAGAR	not soluble
MGSDKIHHHHHHMTHRRSKSVKIYLVGGAVRDSLLNLPIKDKDYMVVGATPEQMLQLGYRQVGKDFPVFLHPITQQEYALARTERKVGLGYGGFSCYASPDVTLEQDLLRRDLTINAIAQDEEGNLHDPFNGIGDLNARLLRHVSDAFIEDPLRVLRVARFAARFHHLGFQIADSTLQLMQQIAQSGELNALTPERVWQEVDKTLSGSNPEVFFEVLRQCGALKVLFPELDALFGIPQPEKWHPEIDTGLHTLMVLAQAAILTQDKAVRFAALVHDLGKAITPIEHLPKHHGHGQKGLPIIKALCERLRIPNEFRDLALIVSDQHQNVHQAFKLRPETIIKIFDKADFWRKPERLKQLVQACIADMRGRTGFEHQDYPQGEYFSQCFAVASNVNIKAIIQAGFKGEEIKQILHMHRIDAVGQLKRDKQNAVD	not soluble
MASSLNEDPEGSRITYVKGDLFACPKTDSLAHCISEDCRMGAGIAVLFKKKFGGVQELLNQQKKSGEVAVLKRDGRYIYYLDWMWSLEHHHHHH	not soluble
MNRLLQQSVSRGPLAVRASSTITTKPPTPNQITKNNAQFDKVTHTGQAWDQSDYRLQRFDISKKSVNPNVAMHLIDQRPPEDCGDKRVVFCDGGHPALGHPKVYINLDKPGVHACGYCGNRFYNSHATKAEDMKIQHLNC	not soluble
MAHHHHHHMGTLEAQTQGPGSMTGPLAAARSVAATKSMTAPTVDERPDIKKGLAGVVVDTTAISKVVPQTNSLTYRGYPVQDLAARCSFEQVAFLLWRGELPTDAELALFSQRERASRRVDRSMLSLLAKLPDNCHPMDVVRTAISYLGAEDPDEDDAAANRAKAMRMMAVLPTIVAIDMRRRRGLPPIAPHSGLGYAQNFLHMCFGEVPETAVVSAFEQSMILYAEHGFNASTFAARVVTSTQSDIYSAVTGAIGALKGRLHGGANEAVMHDMIEIGDPANAREWLRAKLARKEKIMGFGHRVYRHGDSRVPTMKRALERVGTVRDGQRWLDIYQVLAAEMASATGILPNLDFPTGPAYYLMGFDIASFTPIFVMSRITGWTAHIMEQATANALIRPLSAYCGHEQRVLPGTF	soluble
MGSDKIHHHHHHMVVNMFEDIDTFEEAFNKLLREVLEFDLQNPFKDAKKVLCIEPHPDDCVIGMGGTIKKLSDMGVEVIYVCMTDGYMGTTDESLSGHELAAIRRKEEEESARLLGVKKIYWLNYRDTELPYSREVRKDLTKILRKEQPDGVFAPDPWLPYESHPDHRRTGFLAIESVAFSQLPNFSNTDLDIGLNPYNSGSFIALYYTHKPNYIVDITDLMELKLKAIRVHRSQFPDDIWEKWEPFLRTIAMFYGEKIGVRYGEGFRIMPGLFYHITPFTDLI	not soluble
MGSDKIHHHHHHMLKDKMIAKGAKYIQSIYQDPFIQGIIKGRLDHDVICHYLQADNIYLGKFADIYALCLAKSDNLRDKQFFLEQIDFTLNRELADGEGPHQALAAYTNRSYQDIIEKGVWYPSADHYIKHMYFHFYENGIAGALAAMSPCPWIYHQLAKKIIEENQFLNGNPFNNWITFYANDTVEELMENYFRMMDYYAQNLSKEKQADLVDAFVKSCQHERRFFQMAINQEKWED	not soluble
MILAIDLGTSGAKAAIIDSAGAVHEQTFVPYSTTKLPNGGVEQDPMQWVSAARQAVTRLPRSYSVVSFTGQMQDLICLDRAGRPLGQALLYNDARAAAEAARLNTVVPEWKDITGNRQTATSTAAMWLRLMEQSD	not soluble
MGSDKIHHHHHHYKDLSQLKSEVDRLCRLCPWDWTFFNGNCYFFSKSQRDWHDSMTACKEMGAQLVIIKSHEEQSFLQQTSKKNSYTWMGLSDLNKEGEWYWLDGSPLSDSFEKYWKKGQPNNVGGQDCVEFRDNGWNDAKCEQRKFWICKKIATTCLS	not soluble
MSLSKKPCAHIDCELEGGFERSIWIPVRVARLYVKNRPDLPCDWDNFREAVQLIERQCALTMVTEMLSRRDHATGEVCDKLARYGFHQPAIDFAVERATEYHFLDENRFCSYFIEERKRRGWGQRKIETELKRRHVVLDDIPGYPEDYFAVEDDLARASALLAKRRVPETRGFEKLVRFLMGKGFSYHIAADAVKARLDAEREEGHHHHHH	not soluble
